Values of other authors, collected in PMC4584479.
Like-named read-outs stand apart in the source and are kept apart here.

Experiments:
[1] = target: IL-15Rβ/γc (Homo sapiens) (UniProt P14784)
[2] = target: IL-15Rβ/γc (Homo sapiens) (UniProt P14784); remark: listed apart in the source

UniProt P14784, sequence (P14784 27-240, chain 1 of 2): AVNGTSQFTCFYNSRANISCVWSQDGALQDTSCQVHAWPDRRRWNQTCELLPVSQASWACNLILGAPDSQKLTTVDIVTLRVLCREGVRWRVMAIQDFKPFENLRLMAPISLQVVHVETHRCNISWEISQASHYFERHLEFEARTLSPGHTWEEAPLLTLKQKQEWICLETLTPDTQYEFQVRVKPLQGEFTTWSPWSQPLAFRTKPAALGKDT
UniProt P14784, sequence (P31785 23-262, chain 2 of 2, further chain): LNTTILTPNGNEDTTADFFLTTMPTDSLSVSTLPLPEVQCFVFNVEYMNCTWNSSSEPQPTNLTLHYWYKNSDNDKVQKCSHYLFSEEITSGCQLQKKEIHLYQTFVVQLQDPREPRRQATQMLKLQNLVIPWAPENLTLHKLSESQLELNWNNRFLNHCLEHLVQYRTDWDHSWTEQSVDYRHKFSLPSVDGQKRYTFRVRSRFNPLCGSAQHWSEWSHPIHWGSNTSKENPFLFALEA

IL-15 (from UniProt P40933)
Kd [1]: 13.5 nM

IL-15/IL-15Rα-sushi fusion protein (IL-15 hyperagonist) sushi domain of IL-15Rα fused to IL-15 (from UniProt P40933)
Kd [2]: 0.78 nM
